B1: EPB41L3 (parent)
chain: KKFLTLGSKFRYSGRTQAQTRRAS

Variants of: B1
Assay: protein stability index of a GFP-peptide fusion (GPS, HEK-293T) (PSI 1-6); higher = more stable
Details: c terminus: a fixed tail appended
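Note: lentivirally expressed fusions sorted by FACS into six bins by GFP to DsRed ratio, PSI derived from sequencing read proportions per bin multiplied by bin number.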

Protein stability index, by site and new letter:
F10: K 4.16, C 3.11, Q 3.88, H 4.22, W 2.77, L 4.09, V 2.92
K9: Q 1.79, A 1.96, V 2.23, F 2.13, I 2.6, D 2.01, N 1.99, T 2.13, M 2.27, L 2.29, E 1.34, C 1.66, H 2.11, Y 2.85
S13: A 2.63, F 2.67, M 2.87, Q 3.04, V 2.01, Y 3.1, T 2.74, W 2.91, C 1.41, I 2.34, G 2.88, K 3.96, H 2.68, P 2.55, N 3.95, E 4.01, D 2.85
L6: C 3.17, Y 2.48, P 3.57, A 4.31, K 3.64, N 3.44, T 3.88, S 2.52, M 2.64, I 2.75, E 4.08, D 4.05, H 3.38, Q 3.97, V 3.61
Y12: I 3.69, Q 3.82, A 4.58, T 3.96, C 2.54, P 3.23, M 3.9, F 2.6, K 3.01, R 4.02
L4: F 2.99, I 2.56, Q 2.38, N 3.44, T 3.11, M 3.19, H 3.44, E 2.85, R 3.13, C 3.06, D 3.63, K 3.33, S 2.91, A 2.98, P 3.8, G 3.36, V 3.02
S8: I 2.33, H 3.01, A 3.02, G 2.81, D 2.86, F 2.43, T 2.88, M 2.74, R 3.46, Q 2.78, K 2.56, C 2.04, V 2.81, N 2.89, E 3.26, Y 3.4, P 2.16, L 2.17
G7: Q 2.85, S 3.04, P 3.18, L 2.25, V 2.26, A 2.95, M 2.09, T 3.58, N 2.88, C 2.38, D 3.3, W 1.52, K 2.37, Y 3.02, H 2.51, I 1.35, F 2.4
K1: P 2.18, G 3.83, I 2.42, S 2.76, V 2.25, M 4.46, C 2.56, R 3.7, N 3.5, W 1.91, A 2.2, T 2.38, D 2.43, Y 2.23, F 2.45, H 2.56, L 1.91
K2: A 2.14, I 2.54, Q 2.06, S 2.74, L 1.57, C 2.6, H 2.4, G 2.59, Y 2.22, D 2.44, N 2.85, E 2.47, F 4.04, W 2.31, T 2.44, P 2.84, V 2.23, R 4.02
F3: T 3.48, E 3.11, L 3.22, A 3.62, D 3.81, V 3.07, M 3.56, N 3.59, I 3.32, C 3.76, Q 2.95, P 3.6, R 4.15, H 3.82, Y 3.58, S 3.78, K 3.65
